Results as given in article PMC11393876 (Cancers, 2024).

Tests used:
Details in all cases: both partners purified
[1] = target: T1, mouse PD-1 (Mus musculus, UniProt Q02242); assay: ELISA; direct binding ELISA; antigens coated overnight, blocked with 1% BSA 2 h; P1801 incubated at 25 °C for 1 h; detected with peroxidase goat anti-hIgG Fc
T1 construct: PD-1, mouse; source: bought: Sino Biological (50124-M08H)

[2] = target: T2, human CTLA-4 (Homo sapiens, UniProt P16410); assay: as above
T2 construct: CTLA-4, human; source: bought: Sino Biological (11159-H08H)

[3] = target: T3, human PD-L1 (human, UniProt Q9NZQ7); assay: as above
T3 construct: programmed death-ligand 1 (PD-L1), human; also called programmed death-ligand 1; source: bought: Sino Biological (10084-H08H)

[4] = target: T4, cynomolgus PD-1 (Macaca fascicularis (cynomolgus), UniProt B0LAJ3); assay: as above
T4 construct: PD-1, cynomolgus monkey, GenBank NP_001271065.1; source: bought: Sino Biological (90311-C08H)

[5] = target: T5, human PD-L2 (human, UniProt Q9BQ51); assay: as above
T5 construct: PD-L2, human; source: bought: Sino Biological (10292-H08H)

[6] = target: T6, human PD-1 (Homo sapiens, UniProt Q15116); assay: as above
T6 construct: programmed cell death 1 (PD-1), human; also called PD-1/His antigen; human PD-1 proteins; source: bought: Sino Biological (HPLC-10377-H08H) for the ELISA

[7] = target: T7, human CD28 (Homo sapiens, UniProt P10747); assay: as above
T7 construct: CD28, human; source: bought: Sino Biological (11524-HCCH)

[8] = target: T8, Biotin-hPD-1-mIgG Fc (human, UniProt Q15116, biotin); assay: ELISA; competitive ELISA; human PD-L1 coated; Biotin-hPD-1-mIgG Fc at 0.025 μg/mL as binder; serial dilutions of P1801 from 0.5 μg/mL as competitor; 25 °C, 2 h
T8 construct: PD-1, human; also called hPD-1-mFc; source: PharmaEssentia, purified fusion protein

[9] = target: T8, Biotin-hPD-1-mIgG Fc; assay: ELISA; competitive ELISA; human PD-L2 coated; Biotin-hPD-1-mIgG Fc at 0.025 μg/mL as binder; serial dilutions of P1801 from 0.5 μg/mL as competitor; 25 °C, 2 h
[10] = target: T6, human PD-1; assay: SPR; P1801 (2 µg/mL) captured on the surface; human PD-1 proteins injected; 25 °C; HBS-EP (10 mM HEPES, 150 mM NaCl, 3 mM EDTA, 0.05% Tween 20, pH 7.4)

T6 sequence (Q15116 25-170): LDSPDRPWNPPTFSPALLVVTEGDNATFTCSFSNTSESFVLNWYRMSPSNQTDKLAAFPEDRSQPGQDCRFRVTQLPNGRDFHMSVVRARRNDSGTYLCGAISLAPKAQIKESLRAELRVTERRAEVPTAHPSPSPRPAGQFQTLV
T8 sequence (Q15116 25-170): as above
T7 sequence (P10747 19-152): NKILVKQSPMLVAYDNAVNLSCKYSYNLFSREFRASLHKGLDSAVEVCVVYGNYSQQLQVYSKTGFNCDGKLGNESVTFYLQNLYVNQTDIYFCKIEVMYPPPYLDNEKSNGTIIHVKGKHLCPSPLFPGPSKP
T5 sequence (Q9BQ51 20-220): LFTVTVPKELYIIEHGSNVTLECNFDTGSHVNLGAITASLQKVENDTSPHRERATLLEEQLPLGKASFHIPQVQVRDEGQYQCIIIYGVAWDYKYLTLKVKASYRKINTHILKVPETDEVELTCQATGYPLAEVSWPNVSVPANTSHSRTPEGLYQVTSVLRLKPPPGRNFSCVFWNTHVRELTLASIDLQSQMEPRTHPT
T1 sequence (Q02242 25-169): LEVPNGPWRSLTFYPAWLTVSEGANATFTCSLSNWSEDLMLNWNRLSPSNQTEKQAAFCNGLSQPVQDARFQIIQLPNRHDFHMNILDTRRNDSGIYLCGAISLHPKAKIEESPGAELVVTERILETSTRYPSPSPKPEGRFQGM
T2 sequence (P16410 36-161): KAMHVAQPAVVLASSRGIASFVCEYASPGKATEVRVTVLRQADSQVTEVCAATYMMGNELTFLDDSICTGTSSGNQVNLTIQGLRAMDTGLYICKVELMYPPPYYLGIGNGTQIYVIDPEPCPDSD
T3 sequence (Q9NZQ7 19-238): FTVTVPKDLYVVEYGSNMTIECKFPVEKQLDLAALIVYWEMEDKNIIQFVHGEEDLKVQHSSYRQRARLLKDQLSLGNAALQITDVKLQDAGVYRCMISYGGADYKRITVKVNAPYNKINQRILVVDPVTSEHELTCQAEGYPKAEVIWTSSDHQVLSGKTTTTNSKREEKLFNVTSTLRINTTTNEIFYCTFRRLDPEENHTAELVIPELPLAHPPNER

B1: P1801 (antibody, V domains shown)
VH: EVQLVESGGGLVQPGGSLRLSCAASGFTFSSYDMSWVRQAPGKGLEWVATITGGGSYTYYPDSVKGRFTISRDNAKNSLYLQMNSLRAEDTAVYYCASPYLNYFDYWGQGTLVTVSS
VL: EIVLTQSPATLSLSPGERATLSCRASQSISNNLHWYQQKPGQAPRLLIYYASQSISGIPARFSGSGSGTDFTLTISSLEPEDFAVYYCQQSNSWPLTFGQGTKLEIK
notes: 464 residues; mouse CDR1-3 in a human IgG4 framework with the S228P mutation; kappa light chain, 234 residues; mouse CDRs in a human framework; IgG4 kappa, S228P; humanized from murine clone PD-1RB-M59; The printed lengths (464 and 234 residues) may include signal peptides; Molecular weight 146,799 Da; also called anti-human PD-1 IgG4 humanized monoclonal antibody; source: CHO cell expression …
Q: What does the source list for B1?
A: binding result [1]: no binding; binding result [2]: no binding; binding result [3]: no binding; EC50 [4]: 0.44 nM; binding result [5]: no binding; EC50 [6]: 0.57 nM; binding result [7]: no binding; IC50 [8]: 0.57 nM; IC50 [9]: 0.9 nM; Kd [10]: 2.5 nM
